The values below come from PMC3275625.

This experiment addresses SITS-labeled human αB-crystallin wild type (human) (UniProt P02511). Nature of the experiment: FRET or BRET; in vitro subunit exchange: equal amounts (0.4 mg/ml) of SITS-labeled αB-wt (donor) and LYI-labeled αA-wt or mutant (acceptor) mixed at 37°C in 20 mM MOPS, 100 mM NaCl, pH 7.9; excitation 336 nm, rate constant k from the increase of acceptor emission at 515 nm, fit Ft/F0 = A1+A2e^-kt.

SITS-labeled human αB-crystallin wild type (human), sequence (P02511 whole entry): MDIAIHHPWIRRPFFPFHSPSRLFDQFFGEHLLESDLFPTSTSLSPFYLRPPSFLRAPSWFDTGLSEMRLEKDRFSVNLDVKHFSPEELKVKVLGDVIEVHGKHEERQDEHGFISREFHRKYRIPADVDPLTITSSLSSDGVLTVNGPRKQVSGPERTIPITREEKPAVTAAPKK
LYI-labeled human αA-crystallin wild type, sequence (P02489 whole entry): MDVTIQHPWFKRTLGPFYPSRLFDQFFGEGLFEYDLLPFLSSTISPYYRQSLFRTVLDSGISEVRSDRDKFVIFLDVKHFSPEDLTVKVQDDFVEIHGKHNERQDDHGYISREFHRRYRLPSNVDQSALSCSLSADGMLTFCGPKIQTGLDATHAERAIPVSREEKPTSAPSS

Consider “LYI-labeled human αA-crystallin wild type (from UniProt P02489 1-173) (natural protein)”, for which the k (rate constant of subunit exchange) is 0.000657 S^-1.
